Data published in PMC10397247.
Values belong to the binder of their own block, whether it stands above or below them.

Key:
4H1338-bH = molecular target: T1, 4H1338-bH; assay: two-hybrid library CCNG1;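 note: natural log of median RNA to DNA barcode read ratio; higher means stronger binding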
T1 chain: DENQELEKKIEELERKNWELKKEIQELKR

4H1348-bH = molecular target: T2, 4H1348-bH; assay: two-hybrid library CCNG1;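 note: natural log of median RNA to DNA barcode read ratio; higher means stronger binding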
T2 chain: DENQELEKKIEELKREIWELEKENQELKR

4H1373-bH = molecular target: T3, 4H1373-bH; assay: two-hybrid library CCNG1;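 note: natural log of median RNA to DNA barcode read ratio; higher means stronger binding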
T3 chain: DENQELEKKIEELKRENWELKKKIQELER

4H1449-bH = molecular target: T4, 4H1449-bH; assay: two-hybrid library CCNG1;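 note: natural log of median RNA to DNA barcode read ratio; higher means stronger binding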
T4 chain: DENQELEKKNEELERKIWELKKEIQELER

4H1544-bH = molecular target: T5, 4H1544-bH; assay: two-hybrid library CCNG1;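 note: natural log of median RNA to DNA barcode read ratio; higher means stronger binding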
T5 chain: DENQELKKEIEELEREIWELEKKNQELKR

4H1710-bH = molecular target: T6, 4H1710-bH; assay: two-hybrid library CCNG1;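 note: natural log of median RNA to DNA barcode read ratio; higher means stronger binding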
T6 chain: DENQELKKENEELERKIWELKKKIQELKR

4H1899-bH = molecular target: T7, 4H1899-bH; assay: two-hybrid library CCNG1
T7 chain: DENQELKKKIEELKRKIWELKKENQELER

4H1985-bH = molecular target: T8, 4H1985-bH; assay: two-hybrid library CCNG1
T8 chain: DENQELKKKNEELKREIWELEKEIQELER

4H3613-bH = molecular target: T9, 4H3613-bH; assay: two-hybrid library CCNG1
T9 chain: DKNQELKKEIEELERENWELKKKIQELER

4H3628-bH = molecular target: T10, 4H3628-bH; assay: two-hybrid library CCNG1
T10 chain: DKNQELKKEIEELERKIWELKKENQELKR

4H3817-bH = molecular target: T11, 4H3817-bH; assay: two-hybrid library CCNG1
T11 chain: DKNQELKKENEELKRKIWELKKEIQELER

4H3858-bH = molecular target: T12, 4H3858-bH; assay: two-hybrid library CCNG1
T12 chain: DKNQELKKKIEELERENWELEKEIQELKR

4H3974-bH = molecular target: T13, 4H3974-bH; assay: two-hybrid library CCNG1
T13 chain: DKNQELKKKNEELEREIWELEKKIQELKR

4H570-bH = molecular target: T14, 4H570-bH; assay: two-hybrid library CCNG1
T14 chain: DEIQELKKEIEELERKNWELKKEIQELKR

4H850-bH = molecular target: T15, 4H850-bH; assay: two-hybrid library CCNG1
T15 chain: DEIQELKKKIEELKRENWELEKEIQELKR

4H1193-AA = molecular target: T16, 4H1193-AA; assay: two-hybrid library CCmax
T16 chain: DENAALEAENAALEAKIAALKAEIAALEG

4H134-AA = molecular target: T17, 4H134-AA; assay: two-hybrid library CCmax; settings: mean of both orientations
T17 chain: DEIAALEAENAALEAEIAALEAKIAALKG

4H1350-AA = molecular target: T18, 4H1350-AA; assay: two-hybrid library CCmax; settings: mean of both orientations
T18 chain: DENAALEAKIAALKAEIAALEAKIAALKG

4H1385-AA = molecular target: T19, 4H1385-AA; assay: two-hybrid library CCmax; settings: mean of both orientations
T19 chain: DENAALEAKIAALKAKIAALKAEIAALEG

4H1392-AA = molecular target: T20, 4H1392-AA; assay: two-hybrid library CCmax; settings: mean of both orientations
T20 chain: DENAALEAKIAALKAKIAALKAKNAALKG

4H2622-AA = molecular target: T21, 4H2622-AA; assay: two-hybrid library CCmax; settings: mean of both orientations
T21 chain: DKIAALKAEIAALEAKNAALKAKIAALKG

4H2705-AA = molecular target: T22, 4H2705-AA; assay: two-hybrid library CCmax; settings: mean of both orientations
T22 chain: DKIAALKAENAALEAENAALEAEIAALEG

4H2736-AA = molecular target: T23, 4H2736-AA; assay: two-hybrid library CCmax; settings: mean of both orientations
T23 chain: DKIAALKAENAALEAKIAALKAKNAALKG

4H2888-AA = molecular target: T24, 4H2888-AA; assay: two-hybrid library CCmax; settings: mean of both orientations
T24 chain: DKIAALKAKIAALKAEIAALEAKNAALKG

4H3049-AA = molecular target: T25, 4H3049-AA; assay: two-hybrid library CCmax; settings: mean of both orientations
T25 chain: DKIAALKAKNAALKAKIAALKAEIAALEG

4H337-AA = molecular target: T26, 4H337-AA; assay: two-hybrid library CCmax; settings: mean of both orientations
T26 chain: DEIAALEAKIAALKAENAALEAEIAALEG

4H3587-AA = molecular target: T27, 4H3587-AA; assay: two-hybrid library CCmax; settings: mean of both orientations
T27 chain: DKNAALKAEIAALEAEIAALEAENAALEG

4H3590-AA = molecular target: T28, 4H3590-AA; assay: two-hybrid library CCmax; settings: mean of both orientations
T28 chain: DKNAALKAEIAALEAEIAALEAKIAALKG

4H3625-AA = molecular target: T29, 4H3625-AA; assay: two-hybrid library CCmax; settings: mean of both orientations
T29 chain: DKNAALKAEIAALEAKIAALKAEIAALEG

4H384-AA = molecular target: T30, 4H384-AA; assay: two-hybrid library CCmax; settings: mean of both orientations
T30 chain: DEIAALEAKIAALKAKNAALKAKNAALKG

4H3905-AA = molecular target: T31, 4H3905-AA; assay: two-hybrid library CCmax; settings: mean of both orientations
T31 chain: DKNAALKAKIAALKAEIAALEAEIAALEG

4H4038-AA = molecular target: T32, 4H4038-AA; assay: two-hybrid library CCmax; settings: mean of both orientations
T32 chain: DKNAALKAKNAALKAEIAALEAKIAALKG

4H43-AA = molecular target: T33, 4H43-AA; assay: two-hybrid library CCmax; settings: mean of both orientations
T33 chain: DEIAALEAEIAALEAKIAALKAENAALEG

4H451-AA = molecular target: T34, 4H451-AA; assay: two-hybrid library CCmax; settings: mean of both orientations
T34 chain: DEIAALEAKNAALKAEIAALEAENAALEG

4H510-AA = molecular target: T35, 4H510-AA; assay: two-hybrid library CCmax; settings: mean of both orientations
T35 chain: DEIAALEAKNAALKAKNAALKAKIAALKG

4H_APH = molecular target: T36, 4H_APH; assay: two-hybrid library CCmax; settings: mean of both orientations
T36 chain: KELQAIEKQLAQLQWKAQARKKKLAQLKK

4H_BCR = molecular target: T37, 4H_BCR; assay: two-hybrid library CCmax; settings: mean of both orientations
T37 chain: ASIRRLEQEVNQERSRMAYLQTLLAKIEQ

4H_GCN4 = assay: two-hybrid library CCmax
Chain of 4H_GCN4 (chain, as listed by the source): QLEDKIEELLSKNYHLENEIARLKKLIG

GCN2_T = assay: two-hybrid library CCmax; settings: mean of both orientations
O11-AA = molecular target: T38, O11-AA; assay: two-hybrid library CCmax; settings: mean of both orientations
T38 chain: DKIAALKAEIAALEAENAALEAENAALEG

O13-AA = molecular target: T39, O13-AA; assay: two-hybrid library CCmax; settings: mean of both orientations
T39 chain: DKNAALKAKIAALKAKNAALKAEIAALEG

O14-AA = molecular target: T40, O14-AA; assay: two-hybrid library CCmax; settings: mean of both orientations
T40 chain: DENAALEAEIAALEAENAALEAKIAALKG

4H3865-AA = molecular target: T41, 4H3865-AA; assay: two-hybrid library CCmax
T41 chain: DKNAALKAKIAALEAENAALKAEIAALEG

4H458-AA = molecular target: T42, 4H458-AA; assay: two-hybrid library CCmax; settings: mean of both orientations
T42 chain: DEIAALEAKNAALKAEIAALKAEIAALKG

4H485-AA = molecular target: T43, 4H485-AA; assay: two-hybrid library CCmax; settings: mean of both orientations
T43 chain: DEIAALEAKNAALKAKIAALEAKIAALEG

4H536-AA = molecular target: T44, 4H536-AA; assay: two-hybrid library CCmax; settings: mean of both orientations
T44 chain: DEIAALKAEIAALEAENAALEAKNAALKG

4H570-AA = molecular target: T45, 4H570-AA; assay: two-hybrid library CCmax; settings: mean of both orientations
T45 chain: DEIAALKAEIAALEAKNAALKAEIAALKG

4H629-AA = molecular target: T46, 4H629-AA; assay: two-hybrid library CCmax; settings: mean of both orientations
T46 chain: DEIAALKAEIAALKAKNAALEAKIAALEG

4H697-AA = molecular target: T47, 4H697-AA; assay: two-hybrid library CCmax
T47 chain: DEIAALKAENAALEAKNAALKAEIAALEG

4H710-AA = molecular target: T48, 4H710-AA; assay: two-hybrid library CCmax; settings: mean of both orientations
T48 chain: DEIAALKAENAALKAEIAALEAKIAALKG

4H745-AA = molecular target: T49, 4H745-AA; assay: two-hybrid library CCmax; settings: mean of both orientations
T49 chain: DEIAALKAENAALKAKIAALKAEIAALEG

4H797-AA = molecular target: T50, 4H797-AA; assay: two-hybrid library CCmax; settings: mean of both orientations
T50 chain: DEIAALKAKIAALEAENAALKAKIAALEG

4H850-AA = molecular target: T51, 4H850-AA; assay: two-hybrid library CCmax; settings: mean of both orientations
T51 chain: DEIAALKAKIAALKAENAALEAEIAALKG

4H891-AA = molecular target: T52, 4H891-AA; assay: two-hybrid library CCmax; settings: mean of both orientations
T52 chain: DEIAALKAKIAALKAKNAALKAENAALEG

4H909-AA = molecular target: T53, 4H909-AA; assay: two-hybrid library CCmax; settings: mean of both orientations
T53 chain: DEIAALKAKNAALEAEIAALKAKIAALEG

4H930-AA = molecular target: T54, 4H930-AA; assay: two-hybrid library CCmax; settings: mean of both orientations
T54 chain: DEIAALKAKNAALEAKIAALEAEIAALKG

4H94-AA = molecular target: T55, 4H94-AA; assay: two-hybrid library CCmax; settings: mean of both orientations
T55 chain: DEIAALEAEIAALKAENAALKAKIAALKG

4H982-AA = molecular target: T56, 4H982-AA; assay: two-hybrid library CCmax; settings: mean of both orientations
T56 chain: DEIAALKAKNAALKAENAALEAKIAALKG

P5-AA-1HAA-R = molecular target: T57, P5-AA-1HAA-R; assay: two-hybrid library CCmax
T57 chain: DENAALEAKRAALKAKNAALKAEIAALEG

- interaction score (4H1338-bH): 0.937
- interaction score (4H1348-bH): 1.22
- interaction score (4H1373-bH): 0.156
- interaction score (4H1449-bH): -0.182
- interaction score (4H1544-bH): 0.712
- interaction score (4H1710-bH): -0.178
- interaction score (4H1899-bH): -0.277
- interaction score (4H1985-bH): 0.0593
- interaction score (4H3613-bH): -0.0861
- interaction score (4H3628-bH): 0.15
- interaction score (4H3817-bH): -0.423
- interaction score (4H3858-bH): 1.35
- interaction score (4H3974-bH): 0.694
- interaction score (4H570-bH): -0.436
- interaction score (4H850-bH): 1.44
Binder: DENQELEKKIEELERKNWELKKEIQELKR [4H1338-bH]

- interaction score (4H1193-AA): -1.08
- interaction score (4H134-AA): 1.42
- interaction score (4H1350-AA): 1.11
- interaction score (4H1385-AA): -0.776
- interaction score (4H1392-AA): -0.855
- interaction score (4H2622-AA): 1.87
- interaction score (4H2705-AA): -1.54
- interaction score (4H2736-AA): -0.353
- interaction score (4H2888-AA): 0.331
- interaction score (4H3049-AA): 1.47
- interaction score (4H337-AA): -1.69
- interaction score (4H3587-AA): 0.0373
- interaction score (4H3590-AA): 1.11
- interaction score (4H3625-AA): 0.75
- interaction score (4H384-AA): -1.19
- interaction score (4H3905-AA): -0.00198
- interaction score (4H4038-AA): 2.18
- interaction score (4H43-AA): -0.557
- interaction score (4H451-AA): -1.06
- interaction score (4H510-AA): -0.152
- interaction score (4H_APH): -1.85
- interaction score (4H_BCR): -1.78
- interaction score (4H_GCN4): -1.64
- interaction score (GCN2_T): -1.62
- interaction score (O11-AA): -1.11
- interaction score (O13-AA): -0.387
- interaction score (O14-AA): -1.3
Binder: DENAALEAENAALEAKIAALKAEIAALEG [4H1193-AA]

- interaction score (4H3865-AA): 0.444
- interaction score (4H458-AA): -1.15
- interaction score (4H485-AA): -1.27
- interaction score (4H536-AA): -0.909
- interaction score (4H570-AA): 0.484
- interaction score (4H629-AA): -1.62
- interaction score (4H697-AA): -1.81
- interaction score (4H710-AA): -1.84
- interaction score (4H745-AA): -0.83
- interaction score (4H797-AA): 1.12
- interaction score (4H850-AA): 1.18
- interaction score (4H891-AA): -1.81
- interaction score (4H909-AA): -1.04
- interaction score (4H930-AA): -1.43
- interaction score (4H94-AA): 1.56
- interaction score (4H982-AA): -0.79
- interaction score (P5-AA-1HAA-R): -0.395
Binder: DKNAALKAKIAALEAENAALKAEIAALEG [4H3865-AA]
